Test results: IntAct's records for PubMed 10102273

B1: Forkhead box protein O3 (Homo sapiens), O43524 (parent)
chain: MAEAPASPAPLSPLEVELDPEFEPQSRPRSCTWPLQRPELQASPAKPSGETAADSMIPEEEDDEDDEDGGGRAGSAMAIGGGGGSGTLGSGLLLEDSARVLAPGGQDPGSGPATAAGGLSGGTQALLQPQQPLPPPQPGAAGGSGQPRKCSSRRNAWGNLSYADLITRAIESSPDKRLTLSQIYEWMVRCVPYFKDKGDSNSSAGWKNSIRHNLSLHSRFMRVQNEGTGKSSWWIINPDGGKSGKAPRRRAVSMDNSNKYTKSRGRAAKKKAALQTAPESADDSPSQLSKWPGSPTSRSSDELDAWTDFRSRTNSNASTVSGRLSPIMASTELDEVQDDDAPLSPMLYSSSASLSPSVSKPCTVELPRLTDMAGTMNLNDGLTENLMDDLLDNITLPPSQPSPTGGLMQRSSSFPYTTKGSGLGSPTSSFNSTVFGPSSLNSLRQSPMQTIQENKPATFSSMSHYGNQTLQDLLTSDSLSHSDVMMTQSDPLMSQASTAVSAQNSRRNVMLRNDPMMSFAAQPNQGSLVNQNLLHHQHQTQGALGGSRALSNSVSNMGLSESSSLGSAKHQQQSPVSQSMQTLSDSLSGSSLYSTSANLPVMGHEKFPSDLDLDMFNGSLECDMESIIRSELMDADGLDFNFDSLISTQNVVGLNVGNFTGAKQASSQSWVPG

Variants of: B1
Conditions: with 1433z_human YWHAZ

| Variant | effect of a mutation on the interaction |
| --- | --- |
| T32A;S253A | disrupting interaction strength |
| T32A | decreasing interaction strength |
| S253A | decreasing interaction strength |
| S315A | with no effect |

Variants of: B1
Conditions: with akt1_human AKT1, P31749
Chain of akt1_human AKT1, P31749 (P31749 whole entry): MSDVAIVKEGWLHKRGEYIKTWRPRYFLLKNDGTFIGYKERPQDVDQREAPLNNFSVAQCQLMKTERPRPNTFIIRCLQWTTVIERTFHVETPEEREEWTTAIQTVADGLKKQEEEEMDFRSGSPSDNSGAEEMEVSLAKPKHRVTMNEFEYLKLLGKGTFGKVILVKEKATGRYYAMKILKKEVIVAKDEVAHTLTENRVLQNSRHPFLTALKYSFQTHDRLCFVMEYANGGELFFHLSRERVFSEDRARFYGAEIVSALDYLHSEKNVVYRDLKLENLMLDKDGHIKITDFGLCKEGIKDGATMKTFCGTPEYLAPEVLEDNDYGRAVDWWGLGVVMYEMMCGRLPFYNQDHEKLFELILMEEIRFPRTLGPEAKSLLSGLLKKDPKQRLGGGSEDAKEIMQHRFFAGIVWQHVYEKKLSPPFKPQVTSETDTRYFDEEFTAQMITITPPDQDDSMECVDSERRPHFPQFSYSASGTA

| Variant | effect of a mutation on the interaction |
| --- | --- |
| S315A | with no effect |
